We go through two substances from article PMC12326332.

Some targets named below: GST-RNF38^RING-R454A (UniProt Q9H0F5); GST-RNF38^RING-R454C (UniProt Q9H0F5); GST-RNF38^RING-R454D (UniProt Q9H0F5); GST-RNF38^RING-R454E (UniProt Q9H0F5); GST-RNF38^RING-R454F (UniProt Q9H0F5); GST-RNF38^RING-R454G (UniProt Q9H0F5); GST-RNF38^RING-R454H (UniProt Q9H0F5); GST-RNF38^RING-R454I (UniProt Q9H0F5); GST-RNF38^RING-R454K (UniProt Q9H0F5); GST-RNF38^RING-R454L (UniProt Q9H0F5); GST-RNF38^RING-R454M (UniProt Q9H0F5); GST-RNF38^RING-R454N (UniProt Q9H0F5); GST-RNF38^RING-R454P (UniProt Q9H0F5); GST-RNF38^RING-R454Q (UniProt Q9H0F5); GST-RNF38^RING-R454S (UniProt Q9H0F5); GST-RNF38^RING-R454T (UniProt Q9H0F5); GST-RNF38^RING-R454V (UniProt Q9H0F5); GST-RNF38^RING-R454W (UniProt Q9H0F5); GST-RNF38^RING-R454Y (UniProt Q9H0F5); GST-RNF38^RING-WT (UniProt Q9H0F5).

What all share (assay): SPR; Biacore T200, CM-5 chip with coupled anti-GST nanobody; GST-tagged RNF38 LP variants captured, UBE2D2^S22R or UBE2D2^S22R,C85K–Ub as analyte; 25°C; 25 mM Tris–HCl pH 7.6, 150 mM NaCl, 1 mM DTT, 0.005% Tween-20; one-site binding model; two technical replicates

pKd: −log10 of the molar value.

The term pKd denotes −log10 of the Kd, conventionally taken in molar units. A high value points to a small Kd. “UBE2D2^S22R,C85K–Ub (from UniProt P62837 2-147; P0CG48 1-76) (complex)”: the pKd with GST-RNF38^RING-R454A was 4.22; with GST-RNF38^RING-R454C, 4.25; in the experiment with GST-RNF38^RING-R454D, 4.16; with GST-RNF38^RING-R454E, 3.95; in the experiment with GST-RNF38^RING-R454F it was 4.34; in the experiment with GST-RNF38^RING-R454G, 4.04. In addition, the pKd with GST-RNF38^RING-R454H was 4.25; with GST-RNF38^RING-R454I, 4.38; with GST-RNF38^RING-R454K, 4.52; with GST-RNF38^RING-R454L, 4.33; with GST-RNF38^RING-R454M it was 4.51; in the experiment with GST-RNF38^RING-R454N, 3.97. For the same substance, the pKd is 4.08 with GST-RNF38^RING-R454P; 4.53 with GST-RNF38^RING-R454Q; 4.23 with GST-RNF38^RING-R454S; 4.20 with GST-RNF38^RING-R454T; 4.27 with GST-RNF38^RING-R454V; 4.61 in the experiment with GST-RNF38^RING-R454W. Further, the pKd with GST-RNF38^RING-R454Y is 4.62; with GST-RNF38^RING-WT, 5.60.

For “UBE2D2^S22R (from UniProt P62837 1-147) (enzyme)”, the pKd with GST-RNF38^RING-R454A was 3.78; with GST-RNF38^RING-R454C, 3.68; with GST-RNF38^RING-R454D it was 3.57; in the experiment with GST-RNF38^RING-R454E, 3.12; with GST-RNF38^RING-R454F it was 3.76; in the experiment with GST-RNF38^RING-R454G it was 3.41. The pKd with GST-RNF38^RING-R454H was 3.70; in the experiment with GST-RNF38^RING-R454I it was 3.95; in the experiment with GST-RNF38^RING-R454K, 3.88; with GST-RNF38^RING-R454L it was 3.78; with GST-RNF38^RING-R454M, 3.86; with GST-RNF38^RING-R454N, 3.21. The pKd was 3.61 with GST-RNF38^RING-R454P; 4.00 in the experiment with GST-RNF38^RING-R454Q; 3.82 with GST-RNF38^RING-R454S; 3.80 in the experiment with GST-RNF38^RING-R454T; 3.76 with GST-RNF38^RING-R454V; 4.20 with GST-RNF38^RING-R454W. Further, the results for the pKd in the experiment with GST-RNF38^RING-R454Y and with GST-RNF38^RING-WT were 3.86 and 3.98, respectively.
